System: NSP1 (SARS-CoV-2)

Substance: 18S rRNA
- binding signal (fold enrichment): > 5
